Results from patent US20250215499A1 (CHINESE UNIVERSITY OF HONG KONG, published 2025).

Key:
BECN1 = molecular target: T1, BECN1 (UniProt Q14457 1-450, limits assumed); test: co-immunoprecipitation
T1 construct: The ubiquitination co-IPs used endogenous protein from T-REx-293 and KYSE150 cells; also called Beclin 1; Beclin 1/BECN1

SQSTM1/p62 = SQSTM1/p62 (UniProt Q13501 2-440, limits assumed); test: co-immunoprecipitation

T1 sequence (Q14457 whole entry): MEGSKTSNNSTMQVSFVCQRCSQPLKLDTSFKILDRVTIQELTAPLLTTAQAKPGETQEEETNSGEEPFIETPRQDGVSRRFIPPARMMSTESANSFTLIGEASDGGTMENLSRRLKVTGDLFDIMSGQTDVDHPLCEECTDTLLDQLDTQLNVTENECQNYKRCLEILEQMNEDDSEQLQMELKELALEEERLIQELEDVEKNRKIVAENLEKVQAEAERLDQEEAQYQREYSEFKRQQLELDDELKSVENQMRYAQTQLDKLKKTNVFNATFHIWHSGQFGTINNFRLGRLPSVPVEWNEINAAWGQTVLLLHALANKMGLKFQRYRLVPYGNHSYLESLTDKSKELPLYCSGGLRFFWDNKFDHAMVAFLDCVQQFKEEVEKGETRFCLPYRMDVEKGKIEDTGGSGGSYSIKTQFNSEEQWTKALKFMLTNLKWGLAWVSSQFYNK

B1: SP0495 (small protein of KIAA0495), encoded by KIAA0495-ORF2 (other)
chain: MCLLSSSAASDLAATSLTAHPCHPPLPRQPQPQLILSGSPSIGTVPPPAVGHTSLLPVNPPAISTTTSDLSAREDATPSASTGHLSVFPAFQVKIPAVPSEQTSQSFSEASHRVLPGGGPRCSRDFGAGVAGHLGLGIFGVGFGSPALLQSVVDENSCCLLYVVEDQLCDVEQAFRAEHLGQHQSGSGTGCRHCPQRPAAL
notes: The 1-18 transmembrane/signal peptide domain is only a bioinformatic prediction and was not removed; also called KIAA0495-ORF2/SP0495; KIAA0495-ORF2 protein
B1: no binding (BECN1); no binding (SQSTM1/p62).
